Test results as given in US7588931B2, “High arachidonic acid producing strains of Yarrowia lipolytica” (E. I. du Pont de Nemours and Company, priority 2004, dated 2009).

Key:
[1] = tested on: β-glucuronidase (GUS) reporter; experiment: Relative promoter activity rank from comparative GUS reporter studies (histochemical, fluorometric and/or Real Time PCR); type: cell-based, Yarrowia lipolytica; conditions: relative to other promoters
Procedure: The activity of GPM is about the same as TEF, while the activity of GPD, FBA, FBAIN, FBAINm, GPDIN, GPAT, YAT1 and EXP1 are all greater than TEF (activity is quantified in a relative manner in the column titled “Activity Rank”, wherein a ‘1’ corresponds to the promoter with lowest activity, while a ‘7’ corresponds to the promoter with highest activity). […] GUS activity in each expressed construct was measured by histochemical and/or fluorometric assays (Jefferson, R. A. Plant Mol. Biol. Reporter 5:387-405 (1987)) and/or by use of Real Time PCR.

Yarrowia lipolytica = experiment: Percent substrate conversion of desaturases and elongases expressed in Yarrowia lipolytica; type: cell-based; conditions: percent substrate conversion, codon-optimized gene expressed in Y. lipolytica
Procedure: The terms “conversion efficiency” and “percent substrate conversion” refer to the efficiency by which a particular enzyme (e.g., a desaturase or elongase) can convert substrate to product. The conversion efficiency is measured according to the following formula: ([product]/[substrate+product])*100, where ‘product’ includes the immediate product and all products in the pathway derived from it.
With respect to Δ12 desaturase, Applicants have made the surprising discovery that the Fusarium moniliforme Δ12 desaturase (encoded by SEQ ID NO:27) functions with greater efficiency than the native Yarrowia lipolytica Δ12 desaturase in producing 18:2 in Y. lipolytica (see WO 2005/047485). Specifically, expression of the F. moniliforme Δ12 desaturase under the control of the TEF promoter in Y. lipolytica was determined to produce higher levels of 18:2 (68% product accumulation of LA) than were previously attainable by expression of a chimeric gene encoding the Y. lipolytica Δ12 desaturase under the control of the TEF promoter (59% product accumulation of LA). This corresponds to a difference in percent substrate conversion (calculated as ([18:2+18:3]/[18:1+18:2+18:3])*100) of 85% versus 74%, respectively.
In the present invention, several desaturase and elongase genes from Table 5 were codon-optimized for expression in Yarrowia lipolytica, based on the host preferences described above. This was possible by first determining the Y. lipolytica codon usage profile (see WO 04/101757) and identifying those codons that were preferred. Then, for further optimization of gene expression in Y. lipolytica, the consensus sequence around the ‘ATG’ initiation codon was determined (i.e., ‘MAMMATGNHS’ (SEQ ID NO:356), wherein the nucleic acid degeneracy code used is as follows: M=A/C; S═C/G; H=A/C/T; and N=A/C/G/T). Table 7, below, compares the activity of native and codon-optimized genes when expressed in Y. lipolytica and provides details about each codon-optimized gene. % Sub. Conv. is the abbeviation for “percent substrate conversion” and Codon-Opt. is an abbreviation for “codon-optimized”.
Construct pDMW237 (FIG. 8C), an auto-replication plasmid comprising a chimeric FBAIN::1 g D9e::Pex20 gene, was transformed into Y. lipolytica Y2031 strain (Example 4) as described in the General Methods. Three transformants of Y2031 with pDMW237 were grown individually in MM media for two days and the cells were collected by centrifugation, lipids were extracted, and fatty acid methyl esters were prepared by trans-esterification, and subsequently analyzed with a Hewlett-Packard 6890 GC.
Construct pDMW297 was then used for transformation of strain Y2031 (Example 5) according to the General Methods. The transformant cells were plated onto MM selection media plates and maintained at 30° C. for 2 to 3 days. A total of 8 transformants grown on the MM plates were picked and re-streaked onto fresh MM plates. Once grown, these strains were individually inoculated into liquid MM at 30° C. and shaken at 250 rpm/min for 2 days. The cells were collected by centrifugation, lipids were extracted, and fatty acid methyl esters were prepared by trans-esterification, and subsequently analyzed with a Hewlett-Packard 6890 GC.

Row | Molecule | Activity “Rank” [1] | Codon-Opt. Gene % Sub. Conv. (Yarrowia lipolytica) [%]
1 | FBAINm: modified version of the FBAIN promoter, SEQ ID NO:163 (nucleic acid, listed as Yarrowia lipolytica, misc_feature: Promoter FBAINm) DNA: AAATTGCCCCGGAGAAGACGGCCAGGCCGCCTAGATGACAAATTCAACAACTCACAGCTGACTTTCTGCCATTGCCACTAGGGGGGGGCCTTTTTATATGGCCAAGCCAAGCTCTCCACGTCGGTTGGGCTGCACCCAACAATAAATGGGTAGGGTTGCACCAACAAAGGGATGGGATGGGGGGTAGAAGATACGAGGATAACGGGGCTCAATGGCACAAATAAGAACGAATACTGCCATTAAGACTCGTGATCCAGCGACTGACACCATTGCATCATCTAAGGGCCTCAAAACTACCTCGGAACTGCTGCGCTGATCTGGACACCACAGAGGTTCCGAGCACTTTAGGTTGCACCAAATGTCCCACCAGGTGCAGGCAGAAAACGCTGGAACAGCGTGTACAGTTTGTCTTAACAAAAAGTGAGGGCGCTGAGGTCGAGCAGGGTGGTGTGACTTGTTATAGCCTTTAGAGCTGCGAAAGCGCGTATGGATTTGGCTCATCAGGCCAGATTGAGGGTCTGTGGACACATGTCATGTTAGTGTACTTCAATCGCCCCCTGGATATAGCCCCGACAATAGGCCGTGGCCTCATTTTTTTGCCTTCCGCACATTTCCATTGCTCGGTACCCACACCTTGCTTCTCCTGCACTTGCCAACCTTAATACTGGTTTACATTGACCAACATCTTACAAGCGGGGGGCTTGTCTAGGGTATATATAAACAGTGGCTCTCCCAATCGGTTGCCAGTCTCTTTTTTCCTTTCTTTCCCCACAGATTCGAAATCTAAACTACACATCACAGAATTCCGAGCCGTGAGTATCCACGACAAGATCAGTGTCGAGACGACGCGTTTTGTGTAATGACACAATCCGAAAGTCGCTAGCAACACACACTCTCTACACAAACTAACCCAGCTCTGGTACC | 5 | 
2 | Rattus norvegicus C16/18 elongase: GenBank AB071986; codon-optimized gene SEQ ID NO:52 (protein, listed as Rattus norvegicus, misc_feature: synthetic C16/18 elongase (codon-optimized)) MDMSVLTLQEYEFEKQFNENEAIQWMQENWKKSFLFSALYAAFIFGGRHLMNKRAKFELRKPLVLWSLTLAVFSIFGALRTGAYMLYILMTKGLKQSVCDQSFYNGPVSKFWAYAFVLSKAPELGDTIFIILRKQKLIFLHWYHHITVLLYSWYSYKDMVAGGGWFMTMNYGVHAVMYSYYALRAAGFRVSRKFAMFITLSQITQMLMGCVINYLVFNWMQHDNDQCYSHFQNIFWSSLMYLSYLLLFCHFFFEAYIGKVKKATKAE |  | 43
3 | EXP1: Y. lipolytica export protein promoter, SEQ ID NO:364 (nucleic acid, listed as Yarrowia lipolytica, misc_feature: Promoter EXP1) DNA: GGAGTTTGGCGCCCGTTTTTTCGAGCCCCACACGTTTCGGTGAGTATGAGCGGCGGCAGATTCGAGCGTTTCCGGTTTCCGCGGCTGGACGAGAGCCCATGATGGGGGCTCCCACCACCAGCAATCAGGGCCCTGATTACACACCCACCTGTAATGTCATGCTGTTCATCGTGGTTAATGCTGCTGTGTGCTGTGTGTGTGTGTTGTTTGGCGCTCATTGTTGCGTTATGCAGCGTACACCACAATATTGGAAGCTTATTAGCCTTTCTATTTTTTCGTTTGCAAGGCTTAACAACATTGCTGTGGAGAGGGATGGGGATATGGAGGCCGCTGGAGGGAGTCGGAGAGGCGTTTTGGAGCGGCTTGGCCTGGCGCCCAGCTCGCGAAACGCACCTAGGACCCTTTGGCACGCCGAAATGTGCCACTTTTCAGTCTAGTAACGCCTTACCTACGTCATTCCATGCATGCATGTTTGCGCCTTTTTTCCCTTGCCCTTGATCGCCACACAGTACAGTGCACTGTACAGTGGAGGTTTTGGGGGGGTCTTAGATGGGAGCTAAAAGCGGCCTAGCGGTACACTAGTGGGATTGTATGGAGTGGCATGGAGCCTAGGTGGAGCCTGACAGGACGCACGACCGGCTAGCCCGTGACAGACGATGGGTGGCTCCTGTTGTCCACCGCGTACAAATGTTTGGGCCAAAGTCTTGTCAGCCTTGCTTGCGAACCTAATTCCCAATTTTGTCACTTCGCACCCCCATTGATCGAGCCCTAACCCCTGCCCATCAGGCAATCCAATTAAGCTCGCATTGTCTGCCTTGTTTAGTTTGGCTCCTGCCCGTTTCGGCGTCCACTTGCACAAACACAAACAAGCATTATATATAAGGCTCGTCTCTCCCTCCCAACCACACTCACTTTTTTGCCCGTCTTCCCTTGCTAACACAAAAGTCAAGAACACAAACAACCACCCCAACCCCCTTACACACAAGACATATCTACAGCA | 6 | 
4 | Homo sapiens Δ5 desaturase: GenBank NP_037534; codon-optimized gene SEQ ID NO:13 (protein, listed as Homo sapiens, misc_feature: synthetic delta-5 desaturase (codon-optimized)) MAPDPVAAETAAQGPTPRYFTWDEVAQRSGCEERWLVIDRKVYNISEFTRRHPGGSRVISHYAGQDATDPFVAFHINKGLVKKYMNSLLIGELSPEQPSFEPTKNKELTDEFRELRATVERMGLMKANHVFFLLYLLHILLLDGAAWLTLWVFGTSFLPFLLCAVLLSAVQAQAGWLQHDFGHLSVFSTSKWNHLLHHFVIGHLKGAPASWWNHMHFQHHAKPNCFRKDPDINMHPFFFALGKILSVELGKQKKKYMPYNHQHKYFFLIGPPALLPLYFQWYIFYFVIQRKKWVDLAWMITFYVRFFLTYVPLLGLKAFLGLFFIVRFLESNWFVWVTQMNHIPMHIDHDRNMDWVSTQLQATCNVHKSAFNDWFSGHLNFQIEHHLFPTMPRHNYHKVAPLVQSLCAKHGIEYQSKPLLSAFADIIHSLKESGQLWLDAYLHQ |  | 30
